Source: a protein production outcome set (Wang et al. 2014)

Test: label from the status in PepcDB records

Row | Sequence | protein production
1 | MAMKIPKSGYNRFMKEGAQHFKGTDEAVQRNIEACTELASQIRSAYGPNGMNKMVINHIEKLFVTNDAATILKELEIQHPAARIIIMATEMQEKQIGDNTNTVVILAAALLEHAANLIHMGMTPQEVAAGYEQAAEKALEILPTLVVKEATDMKNIEEVRQYIRSAITSKQYDNEDIIADLVAKACVTTCPANSFNFNVDNIRICKIIGSGVHTSTVMNGMVFKRGAEGEIREARDARIAVYTCPFDLTQTETKGTVLIENADELRNFSKGEEAEVEEQVKAIADNARSSILAKFWLMNFSKGEEAEVEEQQVKAIADNGVKVVVAAGKFGDMYLHFLNKYKIMAVRLTSKFDLRRLCRTVGAQPQARICAPAVNLLGHCDSVAVQEIGDENVVVFDKKSETGKVATIIIRGSSQSRIDDVERAVDDAVNTYKALTKDGKLLAGAGAVEIELAKEIESFGAKAPGLEQYAIKKFAHALETLPKAIAENAGMPTTETLTKLYAEHVAGKKNAGIDIWKRETMDAVVNNIFDLYAGKRLAIKLATDAASTILKVDQIIMSKQATGGPKPRGPKAQDEDDDGMA | failed
2 | MAMNGTITTWFKDKGFGFIKDENGDNRYFHVIKVANPDLIKKDAAVTFEPTTNNKGLSAYAVKVVPESKYIYIAGERLKLTSIKSYLVYSEEVPADTRIDKENTVLSVGVLMNSIRPKSVAEPDEIRSLKKLAITTFQGTTLIFSEDEIDVDATVKLLKVLEHHHHHH | not failed
3 | MAMNLPADNEGKIKLAMSILVTIINDTGVPRNIRRAAANALTHLRDPRLSPAVRAANAISALEEVSQDPNMPFYARTRIWQVITILETVRD | failed
4 | MAMPAHMTLTGEKQGKIDGSCELQGRENTIQLYEMKHDIHMPRNPHDGLPTGKRVHGPLSIVKMFDKSSPKLYQALCTGEHMKNVQIKWYRINKQGLEEHYFTTTLEDAIVVEMKPYMPMTLLPANEPYGHMEEVAFSYKKIKWTWEPNGIEAEDSWSVPK | failed
5 | MAMSFSGAVLTGMASSFHSGAKQSSFGAVRVGQKTQFVVVSQRKKSLIYAAKGDGNILDDLNEATKKASDFVTDKTKEALADGEKAKDYVVEKNSETADTLGKEAEKAAAYVEEKGKEAANKAAEFAEGKAGEAKDATK | failed
6 | MAMVSGRRSTLNPDAPLFIPAAVRQVEDFSPEWWQLVTTSTWYPDYWISQQQQGADGFYDNGENENGGGHIDVADLLPESFDFDDMEDFFDTDAAEFDQGFDGRMYYQAPSEFGFGKNGEMVKKSSGNRSPRSIVEPAKYAEKPAKWGNQRVAAAPRNIHQPR | failed
7 | MANAIRLPPEAYPMSIAAQKNDDDRQARALAALAEKPDGIVEAIAAKAEVAPAEILAILPQGAAVSAPADRFDAIWNEMRGWGEILMIVQTGDIVLEVPGHLPEGTESHGWFNIHGDSPIGGHIKKDNCAAITFVDRGFHGRRSCSVWFMNAAGGAMFKIFVRRDENKELLAGQLAKFEELRDGFRGLEHHHHHH | not failed
8 | MANATFSADKLKQLTLQITKLARVAGDFQINELKNFERSNIEHKGRSNDLVSYVDKETEKLLIESLTKLVPEAGFETEEGTVEQTQSGLRWIIDPLDGTTNFLHKLPLFSISIALVQDETLLIGVVHEPSRNECFYAWKNGGAYMNGERIETSSITEISDALIATGFPYSLRGKSDQYFTLIRHFVETTHGVRRLGSAAIDLCYVACGRFEAYFEFNLKPWDVAAGILIVREAGGIVSNYSGGDDHCQTAEEVCAAGRHIHPLMIDTFKKIW | failed
9 | MANCFAPQLTFPSFSPRHFSPRMSHQSPKPSTSTTTSIFTSATKLLWGPSLPPGLLISTARTAWTTVWQLMMTQLAPSDSSGSYTRPTSKFRLDPTQFTSAASSELHLYVGLPCPWAHRTLIVRALKGLNDAVPVSIASPGQDGSWEFKNNNIPIKDKDKLIPSLDKANRCRNLKEVYKSRSGGYDGRCTVPMLWDLRKKDVVCNESYDIIEFFNSGLNKLARNDNLDLSPPELKEMIQGWNQIVYPKVNNGVYRCGFAQSQEAYDGAVNELFSTLDEIEDHLGSNRYLCGERLTLADVCLFTTLIRFDSVYNILFKCTKKKLVEYPNLYGYLREIYQIPGVAATCDISAIMDGYYKTLFPLNASGIQPAISSSGDQDSLWRPHNRDLVGKAIEAQLSV | failed
10 | MANDGATVFWLSFLAIILGFLSWKFKKIGGISLIAISIYGLFVNGLFFIFAFVFLMIAGILSFKIKPTSPKDVKIAN | failed
11 | MANDGYFEPTQELSDETRDMHRAIISLREELEAVDLYNQRVNACKDKELKAILAHNRDEEKEHAAMLLEWIRRCDPAFDKELKDYLFTNKPIAHE | not failed
12 | MANFKVVVSDPKEARAYQIDIKDAEANALIGKSIGDVVDGSIFGLAGYKVQITGGCDGSGFVMKPDLPGPRRQRILTATGVGYVPKLPGQRRRKMMRGKEIAPDIVQVNAKVVEYGSKSIKALLGLETAEEAPAAELEHHHHHH | not failed
13 | MANGPGCACPRCGAPRASGPECPRCGVIYAKARARAAPSPAPSGPGTSLPDPGAAGLALGMPARARWSGELDGARRELWIRAVAPPAALLLALALVSSGPGHALLRTFLSMWIHELGHAVTAWLCGHGAFPGPWRTPISSGRLPLVVIAVSGALAALAWRGWRSGRRAILAAGAAGLGVQLVCTLLPATTARALITFGGDAGCMVIGAALVATIWADPEGPLGRGSLRWGFLVIGAAALVDALHGWVRAWRDPGELPLGEIEGVGLSDASTLMQVHRWSASALSGRYVALGLACLAALGATYAVMLARARGAVAAERRAA | failed
14 | MANGTTPSVGIALGSGAAKGWAHIGVLNGLAAMGIKPDKVAGCSVGALVGAAYAHDHLPELEEWVRSFSSWDVLGLMDIRWRKGGLIGGDKVFDVLQARIGDVNIENLNRPFAAVATDLYSGQEIWFTEGDLRQAVRASCSMPGILAPVRQGDRWLVDGAVVNPVPVSVSRAMGVDVVIAVDLYGYHSGRIQVLPVSMTSQKNVEAEMDMSARQETGFMDLFARGRDYVSNLTDKFSLGTKSNPGMIAVMSQSMGILEQRHKRARLMGDPPDICIVPEVGNIGTMEFHRADEAIAAGEAAVEKVAHLIEAALWKG | not failed
15 | MANHVSLILPPLSLYIHIPWCVQKCPYCDFNSHTQKGTIPEAEYIQHLLADLSQDLVTYKTAIANRKIHSIFIGGGTPSLFSAEAIAYLLAEIKQRIAFAPKIEITLEANPGTAEAERFICYTEAGINRISMGIQSFEEEKLRKLGRIHDAHEAKQAVYFAKNALISPSRTVGLHSFNLDLMHGLPNQTLEQALADLNTAISLNPPHFSWYQLTIEPNTMFYYRQPTLPDDDELWAIFEQGHQLLTMAGYQQYETSAYAKQGFQCQHNLNYWRFGDYLAIGCGAHGKISYPSGEIYRFSKTKHPKGYMRGDYRDSQQSIQLDDRPFEFFMNRFRLLEPTPKQEFECYTGLDCERVRPTIDWALNKHYISETSTTWQVTQKGKLFLNELLAGFLTLEHHHHHH | failed
16 | MANVAIIGTEKSGRTSLAANLGKKGTSSDITMYNNDKEGRNMVFVDAHSYPKTLKSLITALNISDIAVLCIPPQGLDAHTGECIIALDLLGFKHGIIALTRSDSTHMHAIDELKAKLKVITSGTVLQDWECISLNTNKSAKNPFEGVDELKARINEVAEKIEAENAELNSLPARIFIDHAFNVTGKGCVVLGVVKQGISKDKDKTKIFPLDRDIEIRSIQSHDVDIDSAPAGTRVGMRLKNVQAKDIERGFIISDKEIVTTDYTLECTVSKFTKKIEPASVLHLFVGLQSEPVRVEKILVDGNEVEEAKPGSTCVLELSGNKKLAYSKQDRFLLANLDLTQRFAAYGFSK | not failed
17 | MANVDRRQMLLLSGLGATAAVLPVPRAAAVPNQTAASYVFADEFDGPAGSAPSAAKWTIAKARETIQDPTYWEQPGRIGQYRNDRRNVFLDGKSNLVIRAAKDGDTYYSAKLASVWEGGAGHTWEARIKFNCLTAGAWPAFWLGNTGEGELDIIEWYGNGSWPSATTVHAKSNGGEWKTHNIAVDNGWHRWRTQWDAEGARFWLDYTDGAQPYFEVAASSLPDWPFDQPGYTMFVVLNLAVAGSGGGDPSGGTYPADMLVDWVRVW | not failed
18 | MAPCLENVACVNLSAMPPAPPSPQPVSHKQAATLCRQGRTCALKSGSNESGGSVTSTYTSYRLISQDIGKSLERVSKQPDVARETEYYREKIGSVKSIDDFMADTRLYNYALKAHGLEDMAYAKAFIRKVLTEGASDKNAFANKLSDNRYAELAKSLDFAGLGAAATATEAAKSGVIGNYARQTLEQEAGDDNNGVRLALYFERKAPTIKSGLDFLADDALAQVFRTTFNLPDAFAAADVDKQAALIEKSINIKDLQDPEKVGKLLERFTIMWEMQNPSTTYDPLAVFGSSSGYGISPDLLISINSLKLGGKLEHHHHHH | not failed
19 | MAPDLSGTWYVLEGDPGEHLVVEALGERLSGIWTSRELAEAFLAHHPHLGMRVSALESRALKEAYLRALGMLQVEAVMVDYRPGTHRAQVARVKDLLEEVRRA | not failed
20 | MAPFTLYTHAGPGPNPVKVAMALEHLGLDYDCIPLAFGEGKGTVKDPEYTSKVNPNGRVPGLIDHENNDFTVFESAAILQYLAEKTIQYDTSGKLAGSTPEERATVNKWLAWQVSGLGPYQGQLVWFLAFHEGAHGEKPNGSVIARYQAEVERLRSVLEKHLASAENGFVALGRLTIADFAILPWLKISVLAGSALKSFEEYPAINAYIKKLDALPEVQAAYKKAVPPMQ | failed
21 | MAPLDSKSAGGEPGVWKSGRGRGRRLPKGRVYSDEALAAVRGVLGDRPRRRDLLIEFLHLIQDVYGHLSADHLAALAFEMKLGQAEVYETATFYAHFDVVKEGETPPPALTIRVCDSLSCALAGAEQLRAALEEGLDPGQVRVLRAPCMGRCDTAPVLELGHNHIDHATPEKVRAAIAAGDTHAHLPDYEGFDAYAAAGGYAVLKGLRAGGDWEAVQDSVLAAGLRGLGGAGFPSGRKWGFVRANPGPRYLAVNGDEGEPGTFKDRYYLERVPHLFLEGMLIAAWAVEAETCYIYMRDEYPAVLEILRREIAALEAAGIVAKGYIDLRRGAGAYICGEESAMIESIEGKRGLPRHRPPFVAQVGLFGRPTLVHNIETLHWVARVCREGPEVLNSIEKNGRKGLRSYSVSGRVARPGVHLLPAGSTIRDVIAAAGGMAAGHVFKAYQPGGPSSGLLPASMDDIPLDFDTLQPHGSFIGSAAVVVLSQQDSARDAALNMLRFFEDESCGQCTPCRAGCEKAVKLMQAEHWDQPLLEELCQVMADASICGLGQAAPNPIRLTMKHFAEEI | failed
22 | MAPLLSLCMIVKNEAHQLRRCLQSVQPWVDEIIIVDTGSTDGTIAIACEFTPHVHAVAWQGDFAAARNAALAQATGEWVFYIDADEELVVTDAHWQDQLTAPGAHAINQWSLLRREQSSDRNWSEFWNVRFGRRFPDLHFAGALHEQLCYREREAVVGELQGVYLIHHNQQSQEQFLAKIRDRNIPILETMVQQGDRRLQNLVCLGDHYAACGDSDRSQAWYEQALEEIASAVEQGILPRETTWLRHLLFWVSYRAFEAKDYETAQYYLSYGLRFFDRYPPLLYVAGLFVFELGLPRGALPYFHRCLDLFEAGSYDRTEPFDRQWMTTQPAYSLGYTYMTLQERDRAIAYFQKTLKFNPDYPPAQMYLEQLLRASANQGLEHHHHHH | failed
23 | MAPRTYASVLTTPRGPAPLALYCPEAPECPKLEAISNLSFQQITQQAGTSNDQGFEFENTYVEHRINQEIESFVDTHHQEPLRKAAAQFRAVMKQEYPDSTCFITGSYPAGVDIFSSDIDFTVKVPTLEGANPFLKLMQLRKELSCYYTIFSKAYVQKGNIPVLQLMHAETKVSIDVTIDNDTSKRNTQLLAFYSQLDTRFPLLCKAMKAWAASCGVEGASRGRLNSFSLCLMLIHYLQTVQVLLNIQEIFPELNGDIVVEDDNYMKRDLKIEILEKGAFDFNQNTSSLAVLFIGFMKYYSEFNFKWNWISIKHGNVLKKKWSKTRVPKNGMPKDCRFIVVADPLLEIPRNCAGTVRQQNYMERIQLEFREEYERILKRKTIFNLYQCNWSRKLRKEGMERDLQIMILQDELRKLRIANLPTEEEVPWGTVVDFTSPRTFSPTNQHPKVFWCSEQTTENQRRDNLWPELLRTNPYAIFENLI | not failed
